{"source": "patent US20220135940A1", "about": "“METHOD FOR PRODUCING KIDNEY STRUCTURE HAVING DENDRITICALLY BRANCHED COLLECTING DUCT FROM PLURIPOTENT STEM CELLS” (NATIONAL UNIVERSITY CORPORATION KUMAMOTO UNIVERSITY, priority 2018, published 2022)", "molecules": {"B1": {"name": "activin A: homodimer of two inhibin BA chains (protein, UniProt P08476 311-426, looked up)", "Inhibin beta A chain": "GLECDGKVNICCKKQFFVSFKDIGWNDWIIAPSGYHANYCEGECPSHIAGTSGSSLSFHSTVINHYRMRGHSPFANLKSCCVPTKLRPMSMLYYDDGQNIIKKDIQNMIVEECGCS", "modifications": "Inhibin beta A chain", "notes": "homodimer of two inhibin BA chains"}}, "type_in_all_cases": "cell-based", "key": {"mouse ES cells [1]": {"tested_on": "mouse ES cells", "experiment": "AIM induction from mouse ES cells (procedure 3), AIM marker expression", "details": "Fgf9 at high concentrations", "description": "(§1) ES cells were differentiated in a serum-free medium as follows. The ES cells were dissociated with Accutase™ (ESGRO) and cultured in a serum-free mouse ES cell differentiation medium. The harvested cells were aggregated in a 96-well U-bottom low cell binding plate at 1,000 cells per aggregate to form embryonic bodies (EBs). After 48 hours (day 2), the EBs were dissociated with Accutase and re-aggregated in a serum-free differentiation medium supplemented with 10 ng/mL human activin A (R & D) (Procedure 1). After 24 hours (day 3), the medium was replaced with a medium containing 0.3 ng/mL human Bmp4 (R & D) and 10 μM CHIR 99021 (Procedure 2). After 36 hours (day 4.5), the medium was replaced with procedure 3 medium containing 0.1 μM retinoic acid, 100 ng/mL human Fgf9 and 10 μM SB431542 (Wako). On day 5.5 (24 hours later), the medium was replaced with a medium containing 0.1 μM retinoic acid, 100 ng/mL human Fgf9 and 5 μM CHIR99021 (“Procedure 4 medium”). The differentiation factors of the Hoxb7-GFP ES cell line are shown in the table below together with the differentiation factors of the Osr1-GFP ES cell line.\nHarvested spheroids or cells were homogenized, and total RNA was isolated using RNeasy Plus Micro Kit (Qiagen), and then a reverse-transcribed with random primers and Superscript III (Invitrogen). Quantitative PCR was carried out using Real-Time PCR system (Takara Bio) and Thunderbird SYBR qPCR Mix (Toyobo). With normalized by β-actin gene, relative mRNA expression levels were analyzed.\nNext, signaling for the AIM differentiation procedure was hypothesized, which is partially different from that for PIM, based on the gene expression profile minimally conserved, between anterior intermediate mesoderm (AIM) (Osr1+, Pax2+, Pax8+, Emx2+, Lhx1+, Gata3+) and posterior intermediate mesoderm (PIM) (Osr1+, Wtl+, Hoxll+) (Procedure 3 in FIG. 2)."}, "mouse ES cells [2]": {"tested_on": "mouse ES cells", "experiment": "Induction of CXCR4+/KIT+ WD progenitors from mouse ES cells, FACS at day 6.25", "details": "Bmp4 in procedure 2, activin A in procedure 1", "description": "as §1\nOn day 6.25, the induced spheroids were harvested and dissociated by incubating in 0.25% trypsin/EDTA at 37° C. for 6 minutes. After blocking in normal mouse serum, cell surface marker (CXCR4/KIT) staining was carried out in a buffer containing 1% BSA, 1×HBSS and 0.035% NaHCO3. The FACS-sorted 3,000 Hoxb7-GFP+/CXCR4+/KIT+ cells were aggregated in a V-bottom 96-well low cell binding plate to form spheroids. Subsequently, these were cultured using the above E8.75 embryonic tissue culture conditions.\n(§2) Cell aggregates induced from embryonic tissue or mouse ES cells/human iPS cells were dissociated and blocked with normal mouse serum and then cell surface marker staining was carried out in a buffer containing 1% BSA, 1×HBSS and 0.035% NaHCO3. Data analysis was performed with FlowJo software (Treestar)."}, "human iPS cells [3]": {"tested_on": "human iPS cells", "experiment": "Induction of CXCR4+/KIT+ WD progenitors from human iPS cells, FACS at day 6.25", "details": "epiblast patterning stage (day 0 to day 1), combination of activin A and Bmp4", "description": "Cells were reaggregated at 10,000 cells per aggregate in a V-bottom 96-well low cell binding plate using a medium containing 10 μM Y27632 and 10 ng/mL human activin A and 1 ng/mL human Bmp4 (“Procedure 1 medium”), to form embryonic bodies (EBs). After 24 hours (day 1), the aggregates were transferred to a U-bottom 96-well low cell binding plate containing a medium containing 10 μM CHIR and 1 ng/mL human Bmp4 (“Procedure 2 medium”). After 36 hours (day 2.5), the medium was replaced with a medium containing 0.1 μM retinoic acid, 100 ng/mL human Fgf9, 100 nM LDN193189 and 100 μM SB431542 (“Procedure 3 medium”). On day 4.5, the medium was replaced with a medium containing 0.1 μM retinoic acid, 5 μM CHIR, 100 ng/mL human Fgf9 and 30 nM LDN193189 (“Procedure 4 medium”).\nOn day 6.25, the induced spheroids were harvested and dissociated by incubating in 0.25% trypsin/EDTA for 6 minutes at 37° C. After blocking in normal mouse serum, cell surface marker (CXCR4/KIT) staining was carried out in a buffer containing 1% BSA, 1×HBSS and 0.035% NaHCO3. The FACS-sorted 5,000 of CXCR4+/KIT+ cells were seeded in a V-bottom 96-well low cell binding plate and precipitated by the centrifuge (210 G for 4 minutes). The supernatant was replaced with a medium containing 10 μM Y27632, 0.1 μM retinoic acid, 1 μM CHIR, 5 ng/mL human Fgf9, 100 ng/mL human Fgf1, 10 nM LDN193189 and 10% growth factor reduced Matrigel (“Procedure 5 medium”). On day 8.5, the spheroids were transferred to a medium containing 10 μM Y27632, 0.1 μM retinoic acid, 3 μM CHIR, 5 ng/mL human Fgf9, 1 ng/mL human GDNF, 100 ng/mL human Fgf1, 10 nM LDN193189 and 10% growth factor reduced Matrigel (“Procedure 6 medium”). On day 10.5, the spheroids were transferred to a medium containing 10 μM Y27632, 0.1 μM retinoic acid, 3 μM CHIR, 2 ng/mL human GDNF, 100 ng/mL human Fgf1, 10 nM LDN193189 and 10% growth factor reduce Matrigel (“Procedure 7 medium”).\nas §2\nNext, the optimal time window for inducing anterior or posterior intermediate mesoderm from the nascent mesoderm was examined. Since the nascent mesoderm population is maintained by the high concentrations of Wnt agonists, the incubation period with Wnt agonists was varied and the subsequent differentiation was applied with conditions specific to the UB or metanephric nephron progenitor cell lineage. The induction efficiency of CXCR4+/KIT+ WD progenitor or ITGA8+/PDGFRA− nephron progenitor cell fraction was examined at day 6.25 or day 12, respectively. […]"}, "human iPS cells [4]": {"tested_on": "human iPS cells", "experiment": "Induction of ITGA8+/PDGFRA- nephron progenitor cells from human iPS cells, FACS at day 12", "details": "epiblast patterning stage, absence of Bmp4", "description": "The previously reported protocol (Taguchi 2014 above) was modified and applied. In the presence of 10 μM Y27632 and 1 ng/mL human activin A, cells were reaggregated at 10,000 cells per aggregate in a V-bottom 96-well low cell binding plate, to form embryonic bodies (EBs). After 24 hours (day 1), the aggregates were transferred to a U-bottom 96-well low cell binding plate containing the mesoderm-inducing medium containing 10 μM CHIR. Subsequently, half of the culture medium was replaced with a fresh medium every other day (day 3 and day 5). On day 7, the medium was replaced with ABC3R medium containing 10 ng/mL human activin A, 3 ng/mL human Bmp4, 3 μM CHIR and 0.1 μM retinoic acid. On day 9, the medium was replaced with ClF medium containing 1 μM CHIR and 5 ng/mL human Fgf9.\nas §2\nNext, the optimal time window for inducing anterior or posterior intermediate mesoderm from the nascent mesoderm was examined. […]"}}}
{"molecule": "B1", "values": [{"measurement": "induction of AIM markers", "setting": "mouse ES cells [1]", "result": "inhibitory to the induction of AIM markers"}, {"measurement": "UB induction versus MM induction, concentration dependence", "setting": "mouse ES cells [2]", "result": "higher concentration of activin A was preferred for UB induction"}, {"measurement": "concentration at which WD progenitor induction peaked", "setting": "human iPS cells [3]", "result": 10, "unit": "ng/mL"}, {"measurement": "concentration at which induction of nephron progenitor cells was maximized", "setting": "human iPS cells [4]", "result": 1, "unit": "ng/mL"}]}
